{
  "source": "paper PMC10937380",
  "molecular_target": "preformed E3mUU–UFC1–UFM1 complex (UniProt O94874)",
  "test": "ITC; MicroCal PEAQ-ITC, 25 °C, 25 mM HEPES pH 7.5, 200 mM NaCl, 0.44 mM TCEP; 13 injections (19 for UFBP1 UFIM–UFM1)",
  "data": [
    {"substance": "CDK5RAP3 (from UniProt Q96JB5 1-506) (natural protein)", "values": [
      {"measurement": "Kd", "value": 0.5, "unit": "µM"}
    ]}
  ]
}
